Data on four molecules can be found in article PMC5741177.

One data set deals with T1, br (UniProt P03069).
T1 chain: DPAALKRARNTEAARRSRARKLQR
In words: EMSA. (A gel shift assay detects complexes by their altered migration in electrophoresis.)

The next data set has as its target T2, brHis (UniProt P03069, R234H).
T2 chain: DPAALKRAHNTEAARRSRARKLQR
Nature of the data set: EMSA.

The target of data set [1] is T3, brHis2 (UniProt P03069, L230H;R234H).
T3 chain: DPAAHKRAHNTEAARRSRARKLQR
In words: EMSA.

Data set [2] concerns the target T3, brHis2. Nature of the data set: EMSA.
The target of another data set is T4, br2(SS) (UniProt P03069 226-248+=GGC, internal_change).
T4 chain: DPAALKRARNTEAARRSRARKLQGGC
Nature of the data set: EMSA.

In data set [3] the target is T3, brHis2. Nature of the data set: fluorescence anisotropy. For orientation: In fluorescence polarisation assays a small probe gives low polarisation when free and higher when bound to something large.

Where two headings read alike, the source gives them in different places.

B1: GTCAT (dsDNA)
DNA 1: CGCGTCATAATTGAGAGCGC
DNA 2: GCGCTCTCAATTATGACGCG
Consider B1, for which the binding result in the data set with br and in the data set with brHis was “no binding” in each case.

B2: MUT (dsDNA)
DNA 1: CGCGTGATAATTGAGAGCGC
DNA 2: GCGCTCTCAATTATCACGCG
As to B2, in the data set with brHis2 [1], the binding result is given as “no binding”.

B3: AP-1 (dsDNA)
DNA 1: TGGAGATGACGTCATCTCGT
DNA 2: ACGAGATGACGTCATCTCCA
On to B3, for which the binding result with brHis2 [2] and with br2(SS) was “binds” throughout.

B4: TMR-GTCAT (dsDNA)
DNA 1: CGCGTCATAATTGAGAGCGC
DNA 2: GCGCTCTCAATTATGACGCG
Take B4: the Kd with brHis2 [3] was about 24 nM.

The term Kd denotes the constant that tells how readily two partners part at equilibrium. A low value points to higher affinity.
